Paper PMC4622073 (mAbs, 2014)

Tests used:
[1] = molecular target: T1, mST2-Fc fusion protein (unlabelled) (mouse, UniProt P14719 27-332); assay: AlphaScreen or HTRF
T1 sequence: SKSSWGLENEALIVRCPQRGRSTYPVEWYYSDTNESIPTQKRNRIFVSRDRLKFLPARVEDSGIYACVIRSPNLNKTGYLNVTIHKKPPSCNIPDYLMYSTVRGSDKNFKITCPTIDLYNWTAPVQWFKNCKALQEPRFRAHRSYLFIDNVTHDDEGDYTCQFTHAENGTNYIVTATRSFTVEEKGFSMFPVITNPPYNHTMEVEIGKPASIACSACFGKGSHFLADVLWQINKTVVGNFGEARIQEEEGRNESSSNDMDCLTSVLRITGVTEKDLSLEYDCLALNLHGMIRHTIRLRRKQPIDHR

[2] = molecular target: T2, biotinylated mST2-Fc fusion protein (mouse, UniProt P14719 27-332, biotin (site not stated)); assay: AlphaScreen or HTRF
T2 sequence: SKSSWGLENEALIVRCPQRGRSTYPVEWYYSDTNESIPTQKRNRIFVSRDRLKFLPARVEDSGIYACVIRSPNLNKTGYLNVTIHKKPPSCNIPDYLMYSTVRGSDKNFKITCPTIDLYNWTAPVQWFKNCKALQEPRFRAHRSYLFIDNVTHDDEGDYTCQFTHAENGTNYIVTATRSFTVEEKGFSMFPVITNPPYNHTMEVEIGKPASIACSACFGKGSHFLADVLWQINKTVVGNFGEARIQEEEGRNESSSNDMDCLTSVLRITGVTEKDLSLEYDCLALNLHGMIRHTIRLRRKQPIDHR

B1: mouse interleukin-33 (mIL-33), amino acids 97-266, FLAG 10His tagged (ligand)
chain: SIQAFAASVDTLSIQGTSLLTQSPASLSTYNDQSVSFVLENGCYVINVDDSGKDQEQDQVLLRYYESPCPASQSGDGVDGKKLMVNMSPIKDTDIWLHANDKDYSVELQRGDVSPPEQAFFVLHKKSSDFVSFECKNLPGTYIGVKDNQLALVEEKDESCNNIMFKLSKI
Q: Does B1 bind [1]?
A: Result: binds

Q: Does B1 bind [2]?
A: Result: binds
